Results as given in patent US20120114682A1 (GEORGIA TECH RESEARCH, published 2012).

T1: Fibrinogen fragment D (human, UniProt P02671 130-216; P02675 164-491; P02679 114-432, limits assumed)
T1 construct: domain: Fragment D (or D-domain); Made by plasmin digestion of human fibrinogen and purified on GPRPAA beads; holds the C-terminal polymerization pockets without the N-terminal knobs; immobilised by amine coupling on the SPR chip; also called D-domain
T1 sequence (looked up) 1: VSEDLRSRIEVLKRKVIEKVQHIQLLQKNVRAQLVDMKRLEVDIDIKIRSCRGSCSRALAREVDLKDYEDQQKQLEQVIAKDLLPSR
T1 sequence (looked up) 2: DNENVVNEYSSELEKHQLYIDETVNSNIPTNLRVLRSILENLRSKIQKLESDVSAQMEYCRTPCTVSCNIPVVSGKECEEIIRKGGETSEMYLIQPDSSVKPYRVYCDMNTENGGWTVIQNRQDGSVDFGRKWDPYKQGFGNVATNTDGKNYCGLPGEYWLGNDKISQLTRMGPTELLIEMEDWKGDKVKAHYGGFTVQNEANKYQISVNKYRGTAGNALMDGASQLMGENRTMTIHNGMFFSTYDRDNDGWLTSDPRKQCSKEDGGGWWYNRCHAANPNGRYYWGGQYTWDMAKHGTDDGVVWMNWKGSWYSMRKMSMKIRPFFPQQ
T1 sequence (looked up) 3: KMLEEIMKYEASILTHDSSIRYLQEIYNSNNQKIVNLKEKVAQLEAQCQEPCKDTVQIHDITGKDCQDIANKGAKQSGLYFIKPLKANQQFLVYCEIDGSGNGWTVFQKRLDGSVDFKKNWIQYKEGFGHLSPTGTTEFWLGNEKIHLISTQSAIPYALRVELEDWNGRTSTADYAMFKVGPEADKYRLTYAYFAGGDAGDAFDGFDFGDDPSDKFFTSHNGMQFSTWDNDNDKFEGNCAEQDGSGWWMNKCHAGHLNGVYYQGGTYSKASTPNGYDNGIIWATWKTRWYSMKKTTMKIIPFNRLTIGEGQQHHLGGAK


Tests used:
[1] = biological target: Fibrin matrix (clot) (human) (UniProt P02671); assay: confocal colocalisation, perfused fibrin clot, 0 min
Sequence of Fibrin matrix (clot) (human) (P02671 36-629 limits assumed, chain 1 of 2): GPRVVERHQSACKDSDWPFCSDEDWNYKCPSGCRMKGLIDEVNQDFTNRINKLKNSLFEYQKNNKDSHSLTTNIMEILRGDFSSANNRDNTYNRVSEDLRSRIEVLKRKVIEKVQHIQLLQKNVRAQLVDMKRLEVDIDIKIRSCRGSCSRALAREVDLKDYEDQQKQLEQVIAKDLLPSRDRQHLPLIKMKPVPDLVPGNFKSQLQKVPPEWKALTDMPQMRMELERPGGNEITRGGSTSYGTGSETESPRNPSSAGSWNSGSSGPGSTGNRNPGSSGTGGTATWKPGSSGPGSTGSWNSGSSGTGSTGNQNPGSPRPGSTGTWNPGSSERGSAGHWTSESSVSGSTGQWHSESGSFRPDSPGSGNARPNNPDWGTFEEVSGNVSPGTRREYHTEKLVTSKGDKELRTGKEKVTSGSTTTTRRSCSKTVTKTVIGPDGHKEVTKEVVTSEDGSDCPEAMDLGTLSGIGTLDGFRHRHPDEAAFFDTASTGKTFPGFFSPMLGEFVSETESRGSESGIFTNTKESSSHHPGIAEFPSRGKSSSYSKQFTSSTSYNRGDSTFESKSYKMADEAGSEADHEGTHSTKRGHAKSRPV
Sequence of Fibrin matrix (clot) (human) (P02679 other isoform, or with tags, fused parts or gaps limits assumed, chain 3 of 2, further chain): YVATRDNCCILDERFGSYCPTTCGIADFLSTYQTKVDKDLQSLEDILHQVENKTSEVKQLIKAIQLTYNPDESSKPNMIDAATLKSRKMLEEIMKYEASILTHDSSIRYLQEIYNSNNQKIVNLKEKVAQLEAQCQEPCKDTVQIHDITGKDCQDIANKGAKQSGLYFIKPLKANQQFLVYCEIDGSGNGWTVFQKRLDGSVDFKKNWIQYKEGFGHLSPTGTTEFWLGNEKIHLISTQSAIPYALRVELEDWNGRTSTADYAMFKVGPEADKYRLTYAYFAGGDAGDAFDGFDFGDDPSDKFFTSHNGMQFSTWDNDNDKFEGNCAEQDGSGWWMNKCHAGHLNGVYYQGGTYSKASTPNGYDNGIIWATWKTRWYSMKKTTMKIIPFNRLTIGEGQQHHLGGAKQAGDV

[2] = biological target: Fibrin matrix (clot) (human) (UniProt P02671); assay: confocal colocalisation, perfused fibrin clot, 10 min
[3] = biological target: Fibrin matrix (clot) (human) (UniProt P02671); assay: confocal colocalisation, perfused fibrin clot, 20 min
[4] = biological target: Fibrin matrix (clot) (human) (UniProt P02671); assay: confocal colocalisation, perfused fibrin clot, 30 min
Fibrinogen fragment D [5] = biological target: T1, Fibrinogen fragment D; assay: SPR, fragment D immobilised, competitor soluble GPRP peptide in the analyte solution
Fibrinogen fragment D [6] = biological target: T1, Fibrinogen fragment D; assay: SPR (Biacore 2000), fragment D immobilised, equilibrium response fit to a single-site model
Fibrinogen fragment D [7] = biological target: T1, Fibrinogen fragment D; assay: SPR, fragment D immobilised, Langmuir 1:1 model
Description: (§1) Upon stabilization of the baseline signal, kinetic binding experiments were run in duplicate with the peptide variants as the flow analytes. Five varying concentrations for each peptide (0.94 μM to 150 μM) were flowed at 25 μL/min for 4 min immediately followed by a 10 min dissociation phase. Between each run, the surface was regenerated with 1M sodium bromide and 50 mM sodium acetate (pH 6.0). SPR experiments were performed three times with varying peptide injection order to rule out binding trends associated with injection sequence. Peptide solutions were incubated with tris(2-carboxyethyl)phosphine (TCEP) immobilized on agarose beads (Thermo Fisher Scientific, Inc; Rockland, Ill.) to ensure reduction of any disulfide bonds between C-terminal cysteines.
(§2) To investigate the dynamic binding profile between the fibrinogen/fibrin holes and knob peptide variants, SPR was employed. Binding interactions were evaluated by flowing the knob peptides over an immobilized surface of fragment D (FIG. 8). By immobilizing fragment D as opposed to full-length fibrinogen, the kinetic binding model was simplified to a heterogeneous 2-site ligand model (i.e. one hole ‘a’ and hole ‘b’ per ligand) as opposed to a 4-site model (i.e. two of each hole ‘a’ and hole ‘b’ per ligand). The data was modeled using both a Langmuir 1:1 model and a heterogeneous ligand model to compare previously established binding affinities to a more dynamic two-site model. However, the complexity of the heterogeneous model fitted parameters for sites 1 and 2 (i.e. maximal binding response, kₐ, and kd) limits direct designation or assignment of holes ‘a’ or ‘b’ to site 1 or 2. […] All peptide SPR data was fit except for the negative control peptide, GPSPAAC (SEQ ID NO:9), where minimal binding response was observed.

Fibrinogen fragment D [8] = biological target: T1, Fibrinogen fragment D; assay: SPR, heterogeneous ligand model, site 1 (KD1 = kd/ka)
Description: as §1, §2

Fibrinogen fragment D [9] = biological target: T1, Fibrinogen fragment D; assay: SPR, heterogeneous ligand model, site 2 (KD2 = kd/ka)
Description: as §1, §2

Fibrinogen fragment D [10] = biological target: T1, Fibrinogen fragment D; assay: SPR (Biacore 2000), fragment D immobilised, Langmuir 1:1 model
Description: as §1, §2

Fibrinogen fragment D [11] = biological target: T1, Fibrinogen fragment D; assay: SPR, fragment D immobilised, heterogeneous ligand model, site 1
Description: as §1, §2

Fibrinogen fragment D [12] = biological target: T1, Fibrinogen fragment D; assay: SPR, fragment D immobilised, heterogeneous ligand model, site 2
Description: as §1, §2

Fibrinogen fragment D [13] = biological target: T1, Fibrinogen fragment D; assay: SPR, fragment D immobilised, heterogeneous ligand model, site 1 (ka1)
Description: as §1, §2

Fibrinogen fragment D [14] = biological target: T1, Fibrinogen fragment D; assay: SPR, fragment D immobilised, heterogeneous ligand model, site 1 (kd1)
Description: as §1, §2

Fibrinogen fragment D [15] = biological target: T1, Fibrinogen fragment D; assay: SPR, fragment D immobilised, heterogeneous ligand model, site 2 (kd2)
Description: as §1, §2

Fibrinogen fragment D [16] = biological target: T1, Fibrinogen fragment D; assay: SPR, fragment D immobilised, heterogeneous ligand model, site 2 (ka2)
Description: as §1
To investigate the dynamic binding profile between the fibrinogen/fibrin holes and knob peptide variants, SPR was employed. Binding interactions were evaluated by flowing the knob peptides over an immobilized surface of fragment D (FIG. 8). By immobilizing fragment D as opposed to full-length fibrinogen, the kinetic binding model was simplified to a heterogeneous 2-site ligand model (i.e. one hole ‘a’ and hole ‘b’ per ligand) as opposed to a 4-site model (i.e. two of each hole ‘a’ and hole ‘b’ per ligand). […]

Fibrinogen fragment D [17] = biological target: T1, Fibrinogen fragment D; assay: SPR maximal binding response against peptide concentration, fibrinogen fragment D immobilised
Description: as §1
Prior to analysis, all sensorgrams were inspected for abnormalities (i.e. baseline drift, air spikes, or irregular deviations) and excluded. Reference cell responses were subtracted from corresponding active response curves. […] The resulting curves were then analyzed and fitted to the kinetic models. Kinetic modeling and simulations were performed with ClampXP software using the Langmuir 1:1 model or the heterogeneous ligand model; globally fitted parameters were determined for each kinetic data set per peptide. Equilibrium binding constants were calculated from fitted kinetic constants.

Human fibrinogen (human) = Human fibrinogen (human) (UniProt P02671); assay: competition ELISA: soluble peptide added to fibrinogen, binding of fibrinogen to immobilised GPRP-FnIII9-10-C is measured; signal normalised to the GSPE peptide

koff (Fibrinogen fragment D [7]) [s⁻¹] | kon (Fibrinogen fragment D [7]) [M⁻¹ s⁻¹] | Kd (Fibrinogen fragment D [8]) [µM] | Kd (Fibrinogen fragment D [9]) [µM] | Bmax (maximal binding capacity of fragment D) (Fibrinogen fragment D [10]) [RU] | Bmax (maximal binding capacity of fragment D, site 1) (Fibrinogen fragment D [11]) [RU] | B*max (maximal binding capacity of fragment D, site 2) (Fibrinogen fragment D [12]) [RU] | kon (Fibrinogen fragment D [13]) [M⁻¹ s⁻¹] | koff (Fibrinogen fragment D [14]) [s⁻¹] | koff (Fibrinogen fragment D [15]) [s⁻¹] | Molecule | further results
– | – | – | – | – | – | – | – | – | – | GPRP-FnIII9-10-AF633 (from UniProt P02751 1448-1631) | Colocalization Coefficient (Fibrin) [1]: 0.981; Colocalization Coefficient (GPRP-Fn) [1]: 0.965; Correlation Coefficient (R) [1]: 0.47; Mean Intensity (GPRP-Fn) [1]: 100; Relative Area of Colocalization [1]: 94.2%; Colocalization Coefficient (Fibrin) [2]: 0.325; Colocalization Coefficient (GPRP-Fn) [2]: 0.956; Correlation Coefficient (R) [2]: 0.19; Mean Intensity (GPRP-Fn) [2]: 55; Relative Area of Colocalization [2]: 28.5%; Colocalization Coefficient (Fibrin) [3]: 0.219; Colocalization Coefficient (GPRP-Fn) [3]: 0.948; Correlation Coefficient (R) [3]: 0.14; Mean Intensity (GPRP-Fn) [3]: 52; Relative Area of Colocalization [3]: 19.1%; Colocalization Coefficient (Fibrin) [4]: 0.159; Colocalization Coefficient (GPRP-Fn) [4]: 0.926; Correlation Coefficient (R) [4]: 0.11; Mean Intensity (GPRP-Fn) [4]: 51; Relative Area of Colocalization [4]: 12.8%
– | – | – | – | – | – | – | – | – | – | GPRP-FnIII9-10 (from UniProt P02751 1448-1631) | KD in the presence of a 10-molar excess of soluble GPRP peptide (Fibrinogen fragment D [5]): 43 µM; Kd (Fibrinogen fragment D [6]): 3 µM
– | – | – | – | – | – | – | – | – | – | GPRV-FnIII9-10 (from UniProt P02751 1448-1631) | Kd (Fibrinogen fragment D [6]): 125 µM
– | – | – | – | – | – | – | – | – | – | GSPE-FnIII9-10-AF633 (from UniProt P02751 1448-1631) | Colocalization Coefficient (Fibrin) [1]: 0.01; Colocalization Coefficient (GSPE-Fn) [1]: 0.739; Correlation Coefficient (R) [1]: 0.04; Mean Intensity (GSPE-Fn) [1]: 46; Relative Area of Colocalization [1]: 0.6%; Colocalization Coefficient (Fibrin) [2]: 0.001; Colocalization Coefficient (GSPE-Fn) [2]: 0.521; Correlation Coefficient (R) [2]: -0.06; Mean Intensity (GSPE-Fn) [2]: 45; Relative Area of Colocalization [2]: 0%; Colocalization Coefficient (Fibrin) [3]: 0.003; Colocalization Coefficient (GSPE-Fn) [3]: 0.0413; Correlation Coefficient (R) [3]: 0.02; Mean Intensity (GSPE-Fn) [3]: 44; Relative Area of Colocalization [3]: 0.1%; Colocalization Coefficient (Fibrin) [4]: 0.003; Colocalization Coefficient (GSPE-Fn) [4]: 0.377; Correlation Coefficient (R) [4]: -0.02; Mean Intensity (GSPE-Fn) [4]: 38; Relative Area of Colocalization [4]: 0.1%
0.00992 | 1290 | 18.2 | 2.93 | 19.2 | 14.6 | 5.92 | 3220 | 0.0587 | 0.00296 | GPRPPERC (Synthetic (GenScript); also called knob 'A' peptide) | –
0.00727 | 12500 | 3.73 | 1.08 | 17.7 | 17.6 | 11.3 | 21700 | 0.0811 | 0.00196 | GPRPFPAC (Synthetic (GenScript); also called knob 'A' peptide) | kon (Fibrinogen fragment D [16]): 1810 M⁻¹ s⁻¹
0.0234 | 280 | 53.9 | 15.7 | 16.3 | 25.6 | 10.3 | – | 0.0577 | 0.00407 | GPRVVERC (Synthetic (GenScript); also called knob 'A' peptide) | kon (Fibrinogen fragment D [16]): 260 M⁻¹ s⁻¹
0.0117 | 1140 | 4.53 | 8.52 | 21.5 | 19.4 | 5.91 | 2840 | 0.0128 | 0.00895 | GPRPAAC (Synthetic (GenScript); kept reduced with immobilised TCEP; also called gold standard GPRP mimic; knob 'A' peptide) | –
– | – | – | – | – | – | – | – | – | – | GPSPAAC (Synthetic (GenScript); negative control; also called negative control peptide) | binding result (Fibrinogen fragment D [17]): no binding (tested: just below 10^-4 M (last point))
0.0107 | – | 48.5 | 25 | 18.9 | 8.36 | 13.5 | 620 | 0.0301 | 0.001 | GPRVVAAC (Synthetic (GenScript); also called knob 'A' peptide) | –
– | – | – | – | – | – | – | – | – | – | GPRV [GPRV tetrapeptide] | IC50 (read off the curve) (Human fibrinogen (human)): 200 µg/mL
